These results are taken from patent US20200216494A1 (ROYAL MELBOURNE INSTITUTE OF TECHNOLOGY, published 2020).

The test deals with T1, NOX2 (catalytic subunit of NOX2 NADPH oxidase) (mouse, UniProt Q61093 2-570).
T1 construct: whole, on cells; Endogenous protein in mouse alveolar macrophages, BMDMs and RAW264.7 cells; also called gp91phox; CYBB
T1 sequence (looked up): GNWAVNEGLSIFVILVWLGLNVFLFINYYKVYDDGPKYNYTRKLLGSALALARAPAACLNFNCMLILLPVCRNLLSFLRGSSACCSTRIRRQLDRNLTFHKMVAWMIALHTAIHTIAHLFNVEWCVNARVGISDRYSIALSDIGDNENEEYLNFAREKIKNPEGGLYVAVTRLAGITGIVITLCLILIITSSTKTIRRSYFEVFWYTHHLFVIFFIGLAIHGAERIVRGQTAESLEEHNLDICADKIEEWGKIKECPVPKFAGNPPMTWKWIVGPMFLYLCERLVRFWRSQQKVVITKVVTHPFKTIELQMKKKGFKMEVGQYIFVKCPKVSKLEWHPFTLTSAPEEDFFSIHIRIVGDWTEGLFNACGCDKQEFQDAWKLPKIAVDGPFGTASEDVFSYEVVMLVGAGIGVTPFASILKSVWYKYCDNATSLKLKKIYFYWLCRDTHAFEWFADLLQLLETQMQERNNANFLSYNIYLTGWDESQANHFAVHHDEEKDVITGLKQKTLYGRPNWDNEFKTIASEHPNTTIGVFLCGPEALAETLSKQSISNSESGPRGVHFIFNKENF
Kind of test: confocal immunofluorescence of NOX2 and p47phox association (NOX2 oxidase assembly) in HKx31-infected mouse macrophages.

B1: p47phox regulatory subunit of NOX2 oxidase (other, mouse, UniProt Q09014 1-390, looked up)
chain: MGDTFIRHIALLGFEKRFIPSQHYVYMFLVKWQDLSEKVVYRKFTEIYEFHKMLKEMFPIEAGEIHTENRVIPHLPAPRWFDGQRAAESRQGTLTEYFNGLMGLPVKISRCPHLLDFFKVRPDDLKLPTDSQAKKPETYLVPKDGKNNVADITGPIILQTYRAIADYEKSSGTEMTVATGDVVDVVEKSESGWWFCQMKTKRGWVPASYLEPLDSPDEAEDPDPNYAGEPYVTIKAYAAVEEDEMSLSEGEAIEVIHKLLDGWWVVRKGDITGYFPSMYLQKAGEEITQAQRQIRGRGAPPRRSTIRNAQSIHQRSRKRLSQDTYRRNSVRFLQQRRRPGRPGPLSTDGTKDNPSTPRVKPQPAVPPRPSSDLILHRCTESTKRKLTSAV
notes: whole, on cells; Cytosolic subunit, endogenous in the cells
Turning to B1, the binding result is on record as “binds”.
